Results from US10058586B2, “Use of human small leucine zipper protein in adipocyte differentiation procedure” (Korea University Research and Business Foundation, priority 2013, dated 2018).

How the values were obtained:
[1] = system: HDAC3; assay: HDAC3 ubiquitination (Ha-UB, GST pull-down) in 293T cells; type: cell-based; settings: ligand treated (10 nM RZD, 24 hours)
Procedure: Therefore, in order to understand a regulation mechanism of sLZIP in the PPARγ2 transcriptional activity by binding to the FABP4 promoter region, an effect of sLZIP on the interaction between PPARγ2 and HDAC3 was examined. For this purpose, 293T cells were transfected with GST-HDAC3, Myc-PPARγ2 and Flag-sLZIP, and were treated or not treated with 10 nM of RZD for 24 hours. Cell lysates were subjected to GST pull-down analysis using a glutathione 4B bead, and a protein complex was analyzed in SDS-PAGE, and then immunoblotted with anti-GST, anti-Myc and anti-Flag antibodies (FIG. 6A). GST-HDAC3, GST-PPARγ2, Myc-PPARγ2, Flag-sLZIP and Ha-UB were expressed in the 293T cells, and the cells were treated with 10 nM of RZD for 24 hours. Cell lysates were subjected to GST pull-down analysis (FIG. 6B). GST-PPARγ2 and Flag-sLZIP were expressed in the 293T cells and treated with 10 nM of RZD for 24 hours. Cell lysates were subjected to GST pull-down analysis, and a protein complex was analyzed in SDS-PAGE, and then immunoblotted with anti-PGC1α, anti-GST and anti-Flag antibodies (FIG. 6C).

[2] = system: FABP4 and other PPARγ2 target genes; assay: RT-PCR and real-time PCR of PPARγ2 target genes in differentiated preadipocytes of sLZIP TG mice; type: cell-based, mouse; settings: sLZIP TG mice preadipocytes differentiated into adipocytes
Procedure: According to instructions of the manufacturer, a TRIzol reagent (Invitrogen, Carlsbad, Calif.) was added to directly lyse cells in a culture dish. Accupower RT PreMix (BioNeer, Daejeon, Korea) was used to synthesize cDNA from 2 μg of total RNA. A reaction was performed for 60 minutes at 42° C. and for 5 minutes at 94° C. PCR amplification was performed using oligomers listed in Table 2 and a Hipi PCR Mix Kit (ELPIS). As an internal control group, GAPDH was amplified. A PCR product was subjected to electrophoresis in 1-2% (w/v) agarose gel containing 0.5 μg/mL ethidium bromide. A size of the PCR product was measured by comparing it with 1 kb DNA ladder marker (Invitrogen). An intensity of bands amplified according to RT-PCR was analyzed using MultiImage™ Light Cabinet (version 5.5, Alpha Innotech Corp., San Leandro, Calif.).
Real-time PCR was performed in LightCycler 480 using a SYBR Green Master Mix (Roche, Mannheim, Germany). β-actin was used as an internal control group. A target gene expression level rate with respect to β-actin was calculated using CT method. A Ct value is defined as a PCR cycle number at which a fluorescence signal reaches a fixed target threshold. Experiments were technically repeated three times for each experiment.
Adipocyte differentiation is a well-regulated procedure. […] A promoter activity was measured according to luciferase analysis (FIG. 8B). […]

[3] = Solubility of sLZIP; type: physicochemical; settings: saline or buffer solution
[4] = biological target: T1, PPARγ2 (Mus musculus, UniProt P37238); assay: FABP4-Luc stable C3H10T1/2 cells infected with sLZIP-expressing adenovirus and differentiated into adipocytes; type: cell-based; settings: sLZIP adenovirus, differentiated into adipocytes for 4 days
T1 construct: endogenous in cells
T1 sequence (P37238 1-505): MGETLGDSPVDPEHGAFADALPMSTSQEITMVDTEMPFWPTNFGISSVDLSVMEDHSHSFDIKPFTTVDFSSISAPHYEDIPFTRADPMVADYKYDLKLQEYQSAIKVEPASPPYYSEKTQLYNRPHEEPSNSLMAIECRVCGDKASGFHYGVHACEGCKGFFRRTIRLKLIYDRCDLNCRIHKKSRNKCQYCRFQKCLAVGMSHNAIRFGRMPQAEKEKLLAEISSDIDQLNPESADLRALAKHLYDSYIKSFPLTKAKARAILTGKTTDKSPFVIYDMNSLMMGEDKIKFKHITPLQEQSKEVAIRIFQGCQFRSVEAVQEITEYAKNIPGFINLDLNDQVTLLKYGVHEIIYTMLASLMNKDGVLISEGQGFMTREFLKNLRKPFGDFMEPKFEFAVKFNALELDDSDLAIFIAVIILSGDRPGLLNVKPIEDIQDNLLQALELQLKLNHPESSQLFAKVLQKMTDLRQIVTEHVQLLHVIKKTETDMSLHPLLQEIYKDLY

B1: sLZIP: human small leucine-zipper protein, isoform of LZIP, 354 amino acids, no transmembrane domain; GenBank FJ263669, SEQ ID NO: 1 (protein, listed as Homo sapiens)
chain: MELELDAGDQDLLAFLLEESGDLGTAPDEAVRAPLDWALPLSEVPSDWEVDDLLCSLLSPPASLNILSSSNPCLVHHDHTYSLPRETVSMDLESESCRKEGTQMTPQHMEELAEQEIARLVLTDEEKSLLEKEGLILPETLPLTKTEEQILKRVRRKIRNKRSAQESRRKKKVYVGGLESRVLKYTAQNMELQNKVQLLEEQNLSLLDQLRKLQAMVIEISNKTSSSSMYSSDTRGSLPAEHGVLSRQLRALPSEDPYQLELPALQSEVPKDSTHQWLDGSDCVLQAPGNTSCLLHYMPQAPSAEPPLEWPFPDLFSEPLCRGPILPLQANLTRKGGWLPTGSPSVILQDRYSG
[1]
  HDAC3 ubiquitination: inhibited HDAC3 ubiquitination
[2]
  expression of FABP4 and other PPARγ2 target genes (C/EBPα, LPL) mRNA: down-regulated
[3]
  solubility: very soluble in a saline or a buffer solution
[4]
  transcriptional activity of PPARγ2 (relative luciferase activity): the transcriptional activity of PPARγ2 decreased in adipocytes
